From paper PMC6112790, “MicroED structure of the NaK ion channel reveals a Na^+ partition process into the selectivity filter” (Communications Biology, 2018)

Target: the molecule itself
Experiment: crystal structure; MicroED (electron diffraction, continuous rotation) of nano-crystals grown in Na+ buffers with MPD, protein in DM detergent; 11 crystals merged; 2.5 Å; space group I4; tetramer on the four-fold axis

B1: NaK–∆19 (NaK ion channel from Bacillus cereus with the first 19 residues truncated) (domain or fragment)
chain: KDKEFQVLFVLTILTLISGTIFYSTVEGLRPIDALYFSVVTLTTVGDGNFSPQTDFGKIFTILYIFIGIGLVFGFIHKLAVNVQLPSILSNRKKE
notes: NaK channel, Bacillus cereus, wild type with the first 19 residues truncated (about 10-kDa monomer); also called molA; molB
stoichiometry N: 4
